Measurements taken from article PMC10786891, “Massively parallel profiling of RNA-targeting CRISPR-Cas13d”.

T1: EsCas13d, nuclease-dead (Eubacterium siraeum, UniProt B0MS50, R295A;H300A;R849A;H854A)
T1 sequence: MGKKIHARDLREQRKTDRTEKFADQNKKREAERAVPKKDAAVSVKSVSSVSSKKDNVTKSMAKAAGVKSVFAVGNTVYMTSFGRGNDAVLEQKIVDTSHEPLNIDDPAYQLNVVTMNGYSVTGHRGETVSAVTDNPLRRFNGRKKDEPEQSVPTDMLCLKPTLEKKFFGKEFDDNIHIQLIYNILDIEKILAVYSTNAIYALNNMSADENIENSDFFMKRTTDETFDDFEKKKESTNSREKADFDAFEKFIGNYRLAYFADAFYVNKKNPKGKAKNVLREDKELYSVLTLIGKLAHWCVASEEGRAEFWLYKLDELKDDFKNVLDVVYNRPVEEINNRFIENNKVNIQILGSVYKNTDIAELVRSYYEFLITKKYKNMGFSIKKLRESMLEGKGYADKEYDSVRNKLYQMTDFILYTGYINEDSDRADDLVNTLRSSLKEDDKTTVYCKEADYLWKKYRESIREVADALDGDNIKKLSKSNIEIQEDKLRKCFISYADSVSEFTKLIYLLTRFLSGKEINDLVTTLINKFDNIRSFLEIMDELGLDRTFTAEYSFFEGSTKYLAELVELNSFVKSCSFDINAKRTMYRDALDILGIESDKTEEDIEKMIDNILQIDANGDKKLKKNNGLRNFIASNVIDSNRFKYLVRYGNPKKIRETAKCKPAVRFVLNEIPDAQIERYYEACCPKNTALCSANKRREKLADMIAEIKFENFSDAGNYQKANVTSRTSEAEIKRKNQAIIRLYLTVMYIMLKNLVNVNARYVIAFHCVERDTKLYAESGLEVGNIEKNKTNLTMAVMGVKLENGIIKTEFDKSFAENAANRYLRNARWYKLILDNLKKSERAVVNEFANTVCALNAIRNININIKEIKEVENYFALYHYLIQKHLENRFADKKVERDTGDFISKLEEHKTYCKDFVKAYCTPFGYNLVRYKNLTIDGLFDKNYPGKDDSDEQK

B1: target 1 C7U,U19C (mixed)
RNA 1: CACCCGUGCAAAAAUGCAGGGGUCUAAAACUGAGCGGAUAACCUCUCUAUGG
RNA 2: GGGAAUGGAUCCACAUCUACGAAUUCGUACCACAGAGAGGUUAUUCGCUCACCGAGAUCGGAAGAGCACACGU
B2: target 1 insU 3' of 20,insA 3' of 2 (mixed)
RNA 1: CACCCGUGCAAAAAUGCAGGGGUCUAAAACUGAGCGGAUAACCUCUCUAUGG
RNA 2: GGGAAUGGAUCCACAUCUACGAAUUCGUACCAUUAGAGAGGUUAUCCGCUCAACCGAGAUCGGAAGAGCACACGU
B3: target 3 G4A,U22C (mixed)
RNA 1: CACCCGUGCAAAAUUGCAGGGGUCUAAAACGACCUGAAUAUUUCAGAUCAAA
RNA 2: GGGAAUGGAUCCACAUCUACGAAUUCGUUCUUGAUCUGAAAUAUUCAAGUCUGCAGAUCGGAAGAGCACACGU
B4: target 3 C1A,A9G (mixed)
RNA 1: CACCCGUGCAAAAUUGCAGGGGUCUAAAACGACCUGAAUAUUUCAGAUCAAA
RNA 2: GGGAAUGGAUCCACAUCUACGAAUUCGUUUUUGAUCUGAAAUGUUCAGGUAUGCAGAUCGGAAGAGCACACGU
B5: target 3 U8G,U22A (mixed)
RNA 1: CACCCGUGCAAAAUUGCAGGGGUCUAAAACGACCUGAAUAUUUCAGAUCAAA
RNA 2: GGGAAUGGAUCCACAUCUACGAAUUCGUUAUUGAUCUGAAAUAGUCAGGUCUGCAGAUCGGAAGAGCACACGU
B6: target 3 insU 3' of 22,insU 3' of 4 (mixed)
RNA 1: CACCCGUGCAAAAUUGCAGGGGUCUAAAACGACCUGAAUAUUUCAGAUCAAA
RNA 2: GGGAAUGGAUCCACAUCUACGAAUUCGUUUUUUGAUCUGAAAUAUUCAGUGUCUGCAGAUCGGAAGAGCACACGU
B7: target 3 insG 3' of 7,insC 3' of 7 (mixed)
RNA 1: CACCCGUGCAAAAUUGCAGGGGUCUAAAACGACCUGAAUAUUUCAGAUCAAA
RNA 2: GGGAAUGGAUCCACAUCUACGAAUUCGUUUUUGAUCUGAAAUAUUGCCAGGUCUGCAGAUCGGAAGAGCACACGU
B8: target 3 insU 3' of 6,insU 3' of 4 (mixed)
RNA 1: CACCCGUGCAAAAUUGCAGGGGUCUAAAACGACCUGAAUAUUUCAGAUCAAA
RNA 2: GGGAAUGGAUCCACAUCUACGAAUUCGUUUUUGAUCUGAAAUAUUCUAGUGUCUGCAGAUCGGAAGAGCACACGU
B9: target 3 insU 3' of 22,insA 3' of 2 (mixed)
RNA 1: CACCCGUGCAAAAUUGCAGGGGUCUAAAACGACCUGAAUAUUUCAGAUCAAA
RNA 2: GGGAAUGGAUCCACAUCUACGAAUUCGUUUUUUGAUCUGAAAUAUUCAGGUACUGCAGAUCGGAAGAGCACACGU
B10: target 3 C1G,U22C (mixed)
RNA 1: CACCCGUGCAAAAUUGCAGGGGUCUAAAACGACCUGAAUAUUUCAGAUCAAA
RNA 2: GGGAAUGGAUCCACAUCUACGAAUUCGUUCUUGAUCUGAAAUAUUCAGGUGUGCAGAUCGGAAGAGCACACGU
B11: target 3 A12C,U22C (mixed)
RNA 1: CACCCGUGCAAAAUUGCAGGGGUCUAAAACGACCUGAAUAUUUCAGAUCAAA
RNA 2: GGGAAUGGAUCCACAUCUACGAAUUCGUUCUUGAUCUGACAUAUUCAGGUCUGCAGAUCGGAAGAGCACACGU
B12: target 3 insC 3' of 5,insC 3' of 3 (mixed)
RNA 1: CACCCGUGCAAAAUUGCAGGGGUCUAAAACGACCUGAAUAUUUCAGAUCAAA
RNA 2: GGGAAUGGAUCCACAUCUACGAAUUCGUUUUUGAUCUGAAAUAUUCACGGCUCUGCAGAUCGGAAGAGCACACGU
B13: target 3 C16U,U22C (mixed)
RNA 1: CACCCGUGCAAAAUUGCAGGGGUCUAAAACGACCUGAAUAUUUCAGAUCAAA
RNA 2: GGGAAUGGAUCCACAUCUACGAAUUCGUUCUUGAUUUGAAAUAUUCAGGUCUGCAGAUCGGAAGAGCACACGU
B14: target 3 U22C (mixed)
RNA 1: CACCCGUGCAAAAUUGCAGGGGUCUAAAACGACCUGAAUAUUUCAGAUCAAA
RNA 2: GGGAAUGGAUCCACAUCUACGAAUUCGUUCUUGAUCUGAAAUAUUCAGGUCUGCAGAUCGGAAGAGCACACGU
B15: target 3 U7A,U22C (mixed)
RNA 1: CACCCGUGCAAAAUUGCAGGGGUCUAAAACGACCUGAAUAUUUCAGAUCAAA
RNA 2: GGGAAUGGAUCCACAUCUACGAAUUCGUUCUUGAUCUGAAAUAUACAGGUCUGCAGAUCGGAAGAGCACACGU
B16: target 3 insA 3' of 6,insC 3' of 4 (mixed)
RNA 1: CACCCGUGCAAAAUUGCAGGGGUCUAAAACGACCUGAAUAUUUCAGAUCAAA
RNA 2: GGGAAUGGAUCCACAUCUACGAAUUCGUUUUUGAUCUGAAAUAUUCAAGCGUCUGCAGAUCGGAAGAGCACACGU
B17: target 3 U2G,U7A (mixed)
RNA 1: CACCCGUGCAAAAUUGCAGGGGUCUAAAACGACCUGAAUAUUUCAGAUCAAA
RNA 2: GGGAAUGGAUCCACAUCUACGAAUUCGUUUUUGAUCUGAAAUAUACAGGGCUGCAGAUCGGAAGAGCACACGU
B18: target 3 insG 3' of 2,insC 3' of 2 (mixed)
RNA 1: CACCCGUGCAAAAUUGCAGGGGUCUAAAACGACCUGAAUAUUUCAGAUCAAA
RNA 2: GGGAAUGGAUCCACAUCUACGAAUUCGUUUUUGAUCUGAAAUAUUCAGGUGCCUGCAGAUCGGAAGAGCACACGU
B19: target 3 G4A,C6G (mixed)
RNA 1: CACCCGUGCAAAAUUGCAGGGGUCUAAAACGACCUGAAUAUUUCAGAUCAAA
RNA 2: GGGAAUGGAUCCACAUCUACGAAUUCGUUUUUGAUCUGAAAUAUUGAAGUCUGCAGAUCGGAAGAGCACACGU
B20: target 3 del21,del22 (mixed)
RNA 1: CACCCGUGCAAAAUUGCAGGGGUCUAAAACGACCUGAAUAUUUCAGAUCAAA
RNA 2: GGGAAUGGAUCCACAUCUACGAAUUCGUUUGAUCUGAAAUAUUCAGGUCUGCAGAUCGGAAGAGCACACGU
B21: target 3 insC 3' of 8,insC 3' of 3 (mixed)
RNA 1: CACCCGUGCAAAAUUGCAGGGGUCUAAAACGACCUGAAUAUUUCAGAUCAAA
RNA 2: GGGAAUGGAUCCACAUCUACGAAUUCGUUUUUGAUCUGAAAUAUCUCAGGCUCUGCAGAUCGGAAGAGCACACGU
B22: target 3 U2G,C6A (mixed)
RNA 1: CACCCGUGCAAAAUUGCAGGGGUCUAAAACGACCUGAAUAUUUCAGAUCAAA
RNA 2: GGGAAUGGAUCCACAUCUACGAAUUCGUUUUUGAUCUGAAAUAUUAAGGGCUGCAGAUCGGAAGAGCACACGU
B23: target 3 insU 3' of 6,insG 3' of 5 (mixed)
RNA 1: CACCCGUGCAAAAUUGCAGGGGUCUAAAACGACCUGAAUAUUUCAGAUCAAA
RNA 2: GGGAAUGGAUCCACAUCUACGAAUUCGUUUUUGAUCUGAAAUAUUCUAGGGUCUGCAGAUCGGAAGAGCACACGU
B24: target 3 U2A,G4C (mixed)
RNA 1: CACCCGUGCAAAAUUGCAGGGGUCUAAAACGACCUGAAUAUUUCAGAUCAAA
RNA 2: GGGAAUGGAUCCACAUCUACGAAUUCGUUUUUGAUCUGAAAUAUUCACGACUGCAGAUCGGAAGAGCACACGU

target: T1, EsCas13d, nuclease-dead; assay: crRNA (strand 1, pre-loaded); Mg2+; 40 mM Tris-HCl pH 7.5, 150 mM NaCl, 6 mM MgCl2, 1 mM DTT, 0.1% Tween-20, 0.2 mg/ml BSA; 25 C; 10 min per concentration, then washed; conditions: tags: His6-TwinStrep-SUMO cleaved; N-terminal SNAP kept (SNAP-Surface 488); label: 3' end held by stalled T7 RNA polymerase

In order of rising Kd:
1. B6  4.9 ± 0.95 nM
2. B24  5.05 ± 0.55 nM
3. B17  6.55 ± 0.85 nM
4. B8  6.95 ± 0.7 nM
5. B3  7.05 ± 1 nM
6. B16  8.4 ± 0.95 nM
7. B23  10.9 ± 0.9 nM
8. B22  11.3 ± 1.4 nM
9. B2  12 ± 0.7 nM
10. B20  13.4 ± 1.7 nM
11. B14  13.8 ± 1.8 nM
12. B12  19.6 ± 1.9 nM
13. B1  23.5 ± 1.7 nM
14. B9  26.2 ± 2.5 nM
15. B10  41 ± 8 nM
16. B15  41 ± 6.5 nM
17. B19  42 ± 4.5 nM
18. B7  44.5 ± 5 nM
19. B11  53 ± 20 nM
20. B4  61 ± 16.5 nM
21. B18  68.5 ± 10.5 nM
22. B5  72.5 ± 13.5 nM
23. B21  77 ± 23 nM
24. B13  81.5 ± 30 nM
